In publication PMC5675407, “Sugar analog synthesis by in vitro biocatalytic cascade: A comparison of alternative enzyme complements for dihydroxyacetone phosphate production as a precursor to rare chiral sugar synthesis” (PLoS ONE, 2017):

B1: AceKMs (Mycolicibacterium smegmatis MC2 155) (protein)
chain: MTVLVVNSGSSSLKYAVVRPASGEFLADGIIEEIGSGAVPDHDAALRAAFDELAAAGLHLEDLDLKAVGHRMVHGGKTFYKPSVVDDELIAKARELSPLAPLHNPPAIKGIEVARKLLPDLPHIAVFDTAFFHDLPAPASTYAIDRELAETWHIKRYGFHGTSHEYVSQQAAIFLDRPLESLNQIVLHLGNGASASAVAGGKAVDTSMGLTPMEGLVMGTRSGDIDPGVIMYLWRTAGMSVDDIESMLNRRSGVLGLGGASDFRKLRELIESGDEHAKLAYDVYIHRLRKYIGAYMAVLGRTDVISFTAGVGENVPPVRRDALAGLGGLGIEIDDALNSAKSDEPRLISTPDSRVTVLVVPTNEELAIARACVGVV
notes: recombinant, His-tagged (pDEST17 or pETCC2), E. coli
B2: GlpKCb (Clostridium beijerinckii NCIMB 8052) (protein)
chain: MKKYILALDQGTTSSRAIIFDKEQNILGVSQKEFTQIYPNQGWVEHNPLEIWASQYGVLQEVIAKTNITQEEVAAIGITNQRETTIVWDKNTGEPVYNAIVWQCRRTAGIIEELKLDKEFSEYVKENTGLLLDAYFSATKIKWILDNVEGARERAEKGELLFGTVDTWLVWKLTNGKVHVTDYTNASRTMLYNIKELRWDERILEKLNIPKSMLPEVKNSSEVYGYTNLGGTGGVRVPIAGMAGDQQCALFGQTCFEEGSVKNTYGTGCFLLMNTGEKMIHSKNGLVSTIAVGIDGKVQYALEGSVFVGGAVIQWIRDELKLVTDAADTEYFAQKVEDNGGVYVVPAFTGLGAPYWDMYARGAIFGLTRGANRNHIIRAALESIAYQSKDLIDAMQEDAGCKLTRLKVDGGASRNNLLMQFQADITGAEVVRPIITETTALGAAYLAGLAVGFWKSKEEIAEKWAVSQSYSPNLAEEKKEKLYKGWKKAVKRAEGWEEE
notes: recombinant, His-tagged (pDEST17 or pETCC2), E. coli, Ni and size exclusion purified

Assays:
Assay in all cases: purified protein
purified protein [1] = substrate: Nc1ncnc2c1ncn2[C@@H]1O[C@H](COP(=O)(O)OP(=O)(O)O)[C@@H](O)[C@H]1O; assay type: biochemical, Mycolicibacterium smegmatis; conditions: acetyl phosphate in excess, Mg2+, room temperature, buffer as for glycerol kinase (pH 9.2)
Description: (§1) HPLC of ADP and ATP on AceKMs

purified protein [2] = substrate: CC(=O)OP(=O)(O)O; assay type: biochemical, Mycolicibacterium smegmatis; conditions: ADP in excess, Mg2+, room temperature, buffer as for glycerol kinase (pH 9.2)
Description: as §1

purified protein [3] = substrate: OCC(O)CO; assay type: biochemical, Clostridium beijerinckii; conditions: ATP in excess, 10 mM MgCl2, 50 mM NaHCO3 pH 9.2, room temperature
Description: (§2) HPLC of ADP and ATP on GlpKCb

purified protein [4] = substrate: Nc1ncnc2c1ncn2[C@@H]1O[C@H](COP(=O)(O)OP(=O)(O)OP(=O)(O)O)[C@@H](O)[C@H]1O; assay type: biochemical, Clostridium beijerinckii; conditions: glycerol in excess, 10 mM MgCl2, 50 mM NaHCO3 pH 9.2, room temperature
Description: as §2

| Protein | Km (purified protein [1]) [µM] | kcat (purified protein [1]) [s⁻¹] | kcat/Km (purified protein [1]) [M⁻¹ s⁻¹] | Km (purified protein [2]) [µM] | kcat (purified protein [2]) [s⁻¹] | kcat/Km (purified protein [2]) [M⁻¹ s⁻¹] | Km (purified protein [3]) [µM] | kcat (purified protein [3]) [s⁻¹] | kcat/Km (purified protein [3]) [M⁻¹ s⁻¹] | Km (purified protein [4]) [µM] | kcat (purified protein [4]) [s⁻¹] | kcat/Km (purified protein [4]) [M⁻¹ s⁻¹] |
| --- | --- | --- | --- | --- | --- | --- | --- | --- | --- | --- | --- | --- |
| B1 | 113 ± 9 | 1100 | 9.8e+06 | 390 ± 8 | 1103 | 2.8e+06 |  |  |  |  |  |  |
| B2 |  |  |  |  |  |  | 356 ± 27 | 93 | 260000 | 135 ± 16 | 93 | 690000 |
